Experimental findings from US20150299296A1 (Chugai, published 2015) are described below.

The labels stand for the following.
T1: human FcγRIIb extracellular domain with C-terminal His tag (human, UniProt P31994 43-217)
T1 construct: extracellular domain; For crystals it was expressed with kifunensine and trimmed with Endo F1; also called FcgRIIb; FcγRIIb extracellular region
T1 sequence (looked up): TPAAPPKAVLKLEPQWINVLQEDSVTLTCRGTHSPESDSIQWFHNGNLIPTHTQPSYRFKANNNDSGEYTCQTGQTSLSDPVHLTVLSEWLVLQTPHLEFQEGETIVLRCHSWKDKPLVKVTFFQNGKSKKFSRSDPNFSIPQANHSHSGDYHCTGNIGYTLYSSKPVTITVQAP

B1: mutation A (antibody, human IgG1, kappa)
heavy chain: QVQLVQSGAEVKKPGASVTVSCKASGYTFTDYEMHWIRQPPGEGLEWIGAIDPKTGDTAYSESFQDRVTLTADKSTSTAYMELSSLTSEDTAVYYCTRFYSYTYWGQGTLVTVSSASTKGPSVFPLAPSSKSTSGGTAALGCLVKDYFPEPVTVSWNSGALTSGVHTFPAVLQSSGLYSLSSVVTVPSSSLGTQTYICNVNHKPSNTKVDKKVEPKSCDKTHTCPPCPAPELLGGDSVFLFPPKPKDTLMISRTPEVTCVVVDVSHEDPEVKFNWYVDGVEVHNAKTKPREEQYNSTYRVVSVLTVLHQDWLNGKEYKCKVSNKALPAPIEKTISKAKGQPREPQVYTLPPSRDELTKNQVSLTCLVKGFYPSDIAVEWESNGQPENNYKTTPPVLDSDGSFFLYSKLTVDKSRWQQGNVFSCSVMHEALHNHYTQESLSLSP
light chain: DIVMTQSPLSLPVTPGEPASISCQASESLVHSNRNTYLHWYLQKPGQSPQLLIYKVSNRFSGVPDRFSGSGSGTDFTLKISRVEAEDVGVYYCSQNTHVPPTFGQGTKVEIERTVAAPSVFIFPPSDEQLKSGTASVVCLLNNFYPREAKVQWKVDNALQSGNSQESVTEQDSKDSTYSLSSTLTLSKADYEKHKVYACEVTHQGLSSPVTKSFNRGEC
B2: G237W (antibody, human IgG1, kappa)
heavy chain: not shown
light chain: B1 light chain
notes: also called GpH7-B3 with G237W / GpL16-k0 (no P238D)
B3: G237F (antibody, human IgG1, kappa)
heavy chain: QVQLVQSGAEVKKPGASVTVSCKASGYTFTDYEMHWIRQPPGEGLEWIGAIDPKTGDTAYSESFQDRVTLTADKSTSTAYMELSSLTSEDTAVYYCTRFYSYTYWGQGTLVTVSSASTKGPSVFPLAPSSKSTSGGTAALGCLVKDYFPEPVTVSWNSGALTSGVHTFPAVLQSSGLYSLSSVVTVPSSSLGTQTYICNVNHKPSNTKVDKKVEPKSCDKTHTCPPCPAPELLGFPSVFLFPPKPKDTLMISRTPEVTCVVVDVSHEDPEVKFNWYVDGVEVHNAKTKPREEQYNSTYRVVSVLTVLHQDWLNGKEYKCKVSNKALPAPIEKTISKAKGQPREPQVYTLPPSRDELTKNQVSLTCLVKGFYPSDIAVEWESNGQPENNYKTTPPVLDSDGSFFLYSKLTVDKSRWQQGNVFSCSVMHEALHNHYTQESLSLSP
light chain: B1 light chain
notes: also called GpH7-B3 with G237F / GpL16-k0 (no P238D)
B4: S239D (antibody, human IgG1, kappa)
heavy chain: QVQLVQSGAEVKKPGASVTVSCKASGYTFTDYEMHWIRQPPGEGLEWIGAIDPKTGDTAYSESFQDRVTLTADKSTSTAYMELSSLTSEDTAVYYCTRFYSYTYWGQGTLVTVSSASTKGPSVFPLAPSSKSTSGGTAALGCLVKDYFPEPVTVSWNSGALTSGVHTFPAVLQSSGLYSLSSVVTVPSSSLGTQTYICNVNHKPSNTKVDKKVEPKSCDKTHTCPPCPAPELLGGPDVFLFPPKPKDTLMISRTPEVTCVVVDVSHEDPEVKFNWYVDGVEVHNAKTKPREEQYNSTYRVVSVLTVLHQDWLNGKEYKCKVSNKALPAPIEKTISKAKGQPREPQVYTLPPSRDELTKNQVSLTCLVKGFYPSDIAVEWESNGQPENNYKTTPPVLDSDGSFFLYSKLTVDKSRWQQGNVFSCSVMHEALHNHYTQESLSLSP
light chain: B1 light chain
notes: also called GpH7-B3 with S239D / GpL16-k0 (no P238D)
B5: L234W (antibody, human IgG1, kappa)
heavy chain: not shown
light chain: B1 light chain
notes: also called GpH7-B3 with L234W / GpL16-k0 (no P238D)
B6: G237L (antibody, human IgG1, kappa)
heavy chain: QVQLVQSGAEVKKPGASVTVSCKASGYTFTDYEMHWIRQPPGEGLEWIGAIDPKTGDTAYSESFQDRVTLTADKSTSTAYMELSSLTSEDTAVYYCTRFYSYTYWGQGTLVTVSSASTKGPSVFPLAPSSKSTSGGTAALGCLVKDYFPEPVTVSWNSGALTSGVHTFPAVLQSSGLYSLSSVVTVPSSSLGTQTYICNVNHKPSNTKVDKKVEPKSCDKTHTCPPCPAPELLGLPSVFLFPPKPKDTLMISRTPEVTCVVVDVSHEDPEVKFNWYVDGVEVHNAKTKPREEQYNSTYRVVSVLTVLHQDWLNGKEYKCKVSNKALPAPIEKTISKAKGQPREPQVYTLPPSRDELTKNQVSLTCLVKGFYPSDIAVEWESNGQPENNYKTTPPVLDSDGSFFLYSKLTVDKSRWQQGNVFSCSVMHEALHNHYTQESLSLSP
light chain: B1 light chain
notes: also called GpH7-B3 with G237L / GpL16-k0 (no P238D)
B7: L234Y (antibody, human IgG1, kappa)
heavy chain: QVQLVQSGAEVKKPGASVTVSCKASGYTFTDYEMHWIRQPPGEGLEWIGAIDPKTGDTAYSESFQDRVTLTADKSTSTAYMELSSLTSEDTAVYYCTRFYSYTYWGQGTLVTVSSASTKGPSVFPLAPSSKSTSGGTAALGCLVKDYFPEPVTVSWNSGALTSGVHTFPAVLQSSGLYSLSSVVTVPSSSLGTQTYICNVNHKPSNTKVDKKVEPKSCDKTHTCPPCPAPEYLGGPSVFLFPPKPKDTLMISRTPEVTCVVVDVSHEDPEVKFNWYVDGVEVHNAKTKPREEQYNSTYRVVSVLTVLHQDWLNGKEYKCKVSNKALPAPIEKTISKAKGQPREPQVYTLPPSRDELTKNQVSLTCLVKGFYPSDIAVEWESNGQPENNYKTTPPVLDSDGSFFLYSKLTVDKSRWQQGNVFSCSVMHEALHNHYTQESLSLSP
light chain: B1 light chain
notes: also called GpH7-B3 with L234Y / GpL16-k0 (no P238D)
B8: G237E (antibody, human IgG1, kappa)
heavy chain: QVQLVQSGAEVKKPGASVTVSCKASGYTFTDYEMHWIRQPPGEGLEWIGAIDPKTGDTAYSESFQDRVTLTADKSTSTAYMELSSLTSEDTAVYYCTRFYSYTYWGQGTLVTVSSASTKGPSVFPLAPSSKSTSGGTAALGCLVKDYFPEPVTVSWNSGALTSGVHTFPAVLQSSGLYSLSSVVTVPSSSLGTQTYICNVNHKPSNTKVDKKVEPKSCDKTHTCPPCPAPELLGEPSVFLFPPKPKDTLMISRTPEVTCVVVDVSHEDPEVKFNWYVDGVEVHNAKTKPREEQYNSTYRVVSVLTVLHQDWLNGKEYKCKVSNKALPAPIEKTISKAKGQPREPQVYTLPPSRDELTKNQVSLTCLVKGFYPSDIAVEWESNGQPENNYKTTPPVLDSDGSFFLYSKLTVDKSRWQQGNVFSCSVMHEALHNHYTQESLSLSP
light chain: B1 light chain
notes: also called GpH7-B3 with G237E / GpL16-k0 (no P238D)
B9: G237A (antibody, human IgG1, kappa)
heavy chain: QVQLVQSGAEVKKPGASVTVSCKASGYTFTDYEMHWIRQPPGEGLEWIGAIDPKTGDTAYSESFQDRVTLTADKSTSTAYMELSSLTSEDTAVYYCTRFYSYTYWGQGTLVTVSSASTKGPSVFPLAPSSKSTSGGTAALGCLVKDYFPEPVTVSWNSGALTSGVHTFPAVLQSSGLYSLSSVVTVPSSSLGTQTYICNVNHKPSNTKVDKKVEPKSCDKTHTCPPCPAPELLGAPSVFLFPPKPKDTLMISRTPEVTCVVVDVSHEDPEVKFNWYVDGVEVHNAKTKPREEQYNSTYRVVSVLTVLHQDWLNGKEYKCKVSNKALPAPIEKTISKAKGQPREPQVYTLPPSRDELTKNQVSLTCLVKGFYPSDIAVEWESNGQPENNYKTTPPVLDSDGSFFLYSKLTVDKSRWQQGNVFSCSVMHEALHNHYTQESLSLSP
light chain: B1 light chain
notes: also called GpH7-B3 with G237A / GpL16-k0 (no P238D)
B10: G237Y (antibody, human IgG1, kappa)
heavy chain: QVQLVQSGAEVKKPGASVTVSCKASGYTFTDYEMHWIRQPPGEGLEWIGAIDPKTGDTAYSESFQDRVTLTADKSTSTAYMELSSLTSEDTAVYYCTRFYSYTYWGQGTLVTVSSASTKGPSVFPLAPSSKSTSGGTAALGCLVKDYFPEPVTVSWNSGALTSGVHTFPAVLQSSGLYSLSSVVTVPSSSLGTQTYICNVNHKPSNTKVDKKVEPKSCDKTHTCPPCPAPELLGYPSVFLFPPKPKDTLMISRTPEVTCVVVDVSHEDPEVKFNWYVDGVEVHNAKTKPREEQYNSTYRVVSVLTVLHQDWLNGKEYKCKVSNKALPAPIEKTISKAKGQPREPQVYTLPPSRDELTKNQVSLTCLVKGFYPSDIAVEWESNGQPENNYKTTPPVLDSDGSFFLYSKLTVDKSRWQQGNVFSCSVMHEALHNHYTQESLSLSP
light chain: B1 light chain
notes: also called GpH7-B3 with G237Y / GpL16-k0 (no P238D)
B11: G237M (antibody, human IgG1, kappa)
heavy chain: not shown
light chain: B1 light chain
notes: also called GpH7-B3 with G237M / GpL16-k0 (no P238D)
B12: G237D (antibody, human IgG1, kappa)
heavy chain: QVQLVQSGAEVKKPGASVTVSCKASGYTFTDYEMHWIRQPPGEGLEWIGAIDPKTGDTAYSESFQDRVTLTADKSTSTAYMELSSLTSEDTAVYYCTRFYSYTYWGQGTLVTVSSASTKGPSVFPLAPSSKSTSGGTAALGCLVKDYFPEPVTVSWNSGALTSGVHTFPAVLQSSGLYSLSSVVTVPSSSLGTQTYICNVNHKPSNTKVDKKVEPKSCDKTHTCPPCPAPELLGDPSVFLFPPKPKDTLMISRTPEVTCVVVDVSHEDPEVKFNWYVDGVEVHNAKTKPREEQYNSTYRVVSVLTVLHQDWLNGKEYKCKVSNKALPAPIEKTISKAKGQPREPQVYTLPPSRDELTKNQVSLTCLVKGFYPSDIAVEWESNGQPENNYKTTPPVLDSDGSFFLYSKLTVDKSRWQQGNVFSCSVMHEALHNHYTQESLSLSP
light chain: B1 light chain
notes: also called GpH7-B3 with G237D / GpL16-k0 (no P238D)
B13: mutation B (antibody, human IgG1, kappa)
heavy chain: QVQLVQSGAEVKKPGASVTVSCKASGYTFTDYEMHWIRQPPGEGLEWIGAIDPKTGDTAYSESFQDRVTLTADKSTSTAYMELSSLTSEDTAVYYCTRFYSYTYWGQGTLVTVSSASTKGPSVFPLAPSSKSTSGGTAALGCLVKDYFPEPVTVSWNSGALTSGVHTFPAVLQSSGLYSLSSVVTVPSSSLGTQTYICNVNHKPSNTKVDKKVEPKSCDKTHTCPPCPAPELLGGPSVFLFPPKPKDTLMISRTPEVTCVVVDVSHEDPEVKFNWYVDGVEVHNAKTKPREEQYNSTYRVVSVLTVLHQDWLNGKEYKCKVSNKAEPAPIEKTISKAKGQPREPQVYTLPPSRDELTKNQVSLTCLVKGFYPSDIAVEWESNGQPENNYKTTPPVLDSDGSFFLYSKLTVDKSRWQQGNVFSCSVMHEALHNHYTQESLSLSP
light chain: B1 light chain
notes: Legend: mutation B = Leu at 328 (EU numbering) substituted with Glu
B14: IL6R-BP264/IL6R-L (antibody, human IgG1, kappa)
heavy: QVQLQESGPGLVKPSETLSLTCAVSGHSISHDHAWSWVRQPPGEGLEWIGFISYSGITNYNPSLQGRVTISRDNSKNTLYLQMNSLRAEDTAVYYCARSLARTTAMDYWGEGTLVTVSSASTKGPSVFPLAPSSKSTSGGTAALGCLVKDYFPEPVTVSWNSGALTSGVHTFPAVLQSSGLYSLSSVVTVPSSSLGTQTYICNVNHKPSNTKVDKKVEPKSCDKTHTCPPCPAPDLLGDDSVFLFPPKPKDTLMISRTPEVTCVVVDVSEEDGEVKFNWYVDGVEVHNAKTKPREEQDNSTYRVVSVLTVLHQDWLNGKEYKCKVSNKALPRPIEKTISKAKGQPREPQVYTLPPSRDELTKNQVSLTCLVKGFYPSDIAVEWESNGQPENNYKTTPPVLDSDGSFFLYSKLTVDKSRWQQGNVFSCSVMHEALHNHYTQESLSLSP
light: not shown
B15: IL6R-BP510/IL6R-L (antibody, human IgG1, kappa)
heavy: B14 heavy with D235E, V266I, S269A, E274P, D298Y
light: not shown
notes: also called IL6R-BP510/L6R-L
B16: IL6R-BP503/IL6R-L (antibody, human IgG1, kappa)
heavy: B14 heavy with V266I, S269A, A329G, P398M
light: not shown
B17: IL6R-BP499/IL6R-L (antibody, human IgG1, kappa)
heavy: B14 heavy with V266I, S269A, P398L
light: not shown
B18: IL6R-BP511/IL6R-L (antibody, human IgG1, kappa)
heavy: B14 heavy with D235E, V266I, S269A, E274P
light: not shown
B19: IL6R-BP436/IL6R-L (antibody, human IgG1, kappa)
heavy: B14 heavy with S269A, I334T
light: not shown
B20: IL6R-BP567/IL6R-L (antibody, human IgG1, kappa)
heavy: B14 heavy with D239G, V266I, S269A, R332A
light: not shown
B21: IL6R-BP568/IL6R-L (antibody)
heavy: B14 heavy with D239G, V266I, S269A, D298Y, R332A
light: not shown
B22: IL6R-BP495/IL6R-L (antibody, human IgG1, kappa)
heavy: B14 heavy with D235E, S269G
light: not shown
B23: IL6R-BP489/IL6R-L (antibody, human IgG1, kappa)
heavy: B14 heavy with V266I, S269A, P398M
light: not shown
B24: IL6R-BP492/IL6R-L (antibody, human IgG1, kappa)
heavy: B14 heavy with D235E, D239G, V266I, S269A, D298Y, R332A
light: not shown
B25: IL6R-BP493/IL6R-L (antibody, human IgG1, kappa)
heavy: B14 heavy with D235E, D239G, V266I, S269A, R332A
light: not shown
B26: IL6R-BP479/IL6R-L (antibody)
chain 1: B14 heavy with V266I, V268L, S269A, D298Y, R332A
chain 2: not shown

Positions count from the first letter of the chain named. Numbers in names are those of the source.

The first test deals with T2, FcγRIIIa extracellular domain with C-terminal His tag, allotype not stated (Reference Example 4) (human, UniProt P08637 17-208).
T2 construct: extracellular domain
T2 sequence (P08637 17-208): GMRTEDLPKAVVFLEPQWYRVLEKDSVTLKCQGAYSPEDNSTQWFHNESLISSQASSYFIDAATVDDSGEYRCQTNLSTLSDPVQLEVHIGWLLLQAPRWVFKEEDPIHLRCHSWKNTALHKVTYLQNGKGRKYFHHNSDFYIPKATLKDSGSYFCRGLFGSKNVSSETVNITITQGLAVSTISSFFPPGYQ
Kind of test: SPR (Biacore): antibody captured on the chip, FcγR as analyte; amount bound divided by amount of antibody captured, relative to the antibody without mutation in B3 = 100 (Reference Examples 2 and 3). For orientation: SPR reads the build-up and loss of mass on a sensor chip optically.
B1: the binding result is on record as “no binding”.

Another test concerns the target T1, human FcγRIIb extracellular domain with …. The experiment in a line: SPR (Biacore): amount of FcγRIIb bound per captured antibody, relative to the pre-altered antibody GpH7-B3/GpL16-k0 = 100 (Reference Examples 2, 3 and 6).
Turning to B2, the binding result is on record as “binds”. Consider B3, for which the binding result is reported as “binds”.

As to B4, the binding result was “binds”. For B5, the binding result is on record as “binds”. As for B6, the binding result was “binds”. For B7, the binding result was “binds”. Regarding B8, the binding result is “binds”.

B9: the binding result was “binds”. Regarding B10, the binding result is listed as “binds”. Take B11: the binding result is reported as “binds”.

Consider B12, for which the binding result is “binds”.

In the next test the target is T3, human FcγRIa extracellular domain with C-terminal His tag (human, UniProt P12314 16-292).
T3 construct: Whole entry named; also called FcgRIa; FcgIa
T3 sequence (P12314 16-292): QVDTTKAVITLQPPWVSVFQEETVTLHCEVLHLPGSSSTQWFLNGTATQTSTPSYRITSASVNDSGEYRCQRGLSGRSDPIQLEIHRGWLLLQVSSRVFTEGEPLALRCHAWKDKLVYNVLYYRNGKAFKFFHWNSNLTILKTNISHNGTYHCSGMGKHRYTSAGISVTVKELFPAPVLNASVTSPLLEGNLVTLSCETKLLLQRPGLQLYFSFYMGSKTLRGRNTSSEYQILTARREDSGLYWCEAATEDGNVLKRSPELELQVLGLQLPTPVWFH
The experiment in a line: SPR (Biacore): antibody captured on the chip, FcγR as analyte; amount bound divided by amount of antibody captured, relative to the antibody without mutation in B3 = 100 (Reference Examples 2 and 3).
In the case of B13, the binding result was “binds”. The same measure, in the same setting: with B1 the entry was “binds”.

The next test addresses T1, human FcγRIIb extracellular domain with …. The experiment in a line: SPR (Biacore), KD by the method of Reference Example 2 (Example 9-3). How it is done:
These variants were used for antibody expression and purification according to the method of Reference Example 1, and binding to each FcgR (FcgRIa. FcgRIIa type H, FcgRIIa type R, FcgRIIb, and FcgRIIIa type V) was assessed using the method of Reference Example 2.
In the case of B14, the binding result is “binds”.

The next test shares this target. Kind of test: SPR.
As to B15, the binding result is “binds”.

Take B16: the binding result is listed as “binds”. Still for that read-out and setting: the value for B17 was “binds”; that for B18 was “binds”; that for B19 was “binds”.

Another test has as its target T3, human FcγRIa extracellular domain with …. Kind of test: SPR.
Take B20: the binding result is listed as “binds”. With B19, the binding result is “binds”.

A further test deals with T1, human FcγRIIb extracellular domain with …. The experiment in a line: SPR KD ratio.
For B21, the “fold binding against the native form” value was 211 fold. As for B22, the “fold binding (IL6R-B3/IL6R-L = 1)” value was found to be 321 times. As for B23, the “fold binding (IL6R-B3/IL6R-L = 1)” value turned out to be 3100 times. With B24, the “fold binding against the native form” value is 131 fold. On to B25, for which the “fold binding against the native form” value came out at 147 fold.

The next test has the same target. The experiment in a line: SPR KD ratio; reference is the same variant's KD for FcγRIIaR.
With B26, the “KD (IIaR)/KD (IIb)” value is 16.1.

In the case of B20, the “KD (IIaR)/KD (IIb)” value is 64.4.
